T1: human BTN2A2 expressed on HEK293F cells transfected with BTN2A2-Flag plasmid (human, UniProt Q8WVV5 33-523)
T1 construct: HEK293F cells here are not knocked out for endogenous BTN2/BTN3; also called HEK-BTN2 cells; not shown: Flag tag
T1 sequence: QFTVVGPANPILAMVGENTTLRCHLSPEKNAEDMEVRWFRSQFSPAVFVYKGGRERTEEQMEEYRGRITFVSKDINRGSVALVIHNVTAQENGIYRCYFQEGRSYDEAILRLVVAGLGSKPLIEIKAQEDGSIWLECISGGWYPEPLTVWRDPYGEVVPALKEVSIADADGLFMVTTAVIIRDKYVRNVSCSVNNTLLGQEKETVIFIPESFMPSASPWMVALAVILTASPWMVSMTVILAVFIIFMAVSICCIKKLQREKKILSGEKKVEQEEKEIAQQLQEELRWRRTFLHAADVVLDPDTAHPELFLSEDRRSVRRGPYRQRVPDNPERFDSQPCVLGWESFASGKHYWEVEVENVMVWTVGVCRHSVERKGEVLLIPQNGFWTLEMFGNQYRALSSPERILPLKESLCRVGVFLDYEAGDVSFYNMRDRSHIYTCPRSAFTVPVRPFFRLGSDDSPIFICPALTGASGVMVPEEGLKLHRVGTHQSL

T2: human BTN2A1 CFP(Nter)-fusion protein expressed on 293F BTN3/BTN2 KO cells (human, UniProt Q7KYR7 29-527)
T2 construct: also called pcDNA3-Zeo-BTN2A1-CFP; not shown: CFP fused at the N-terminus (CFP(Nter)-fusion)
T2 sequence: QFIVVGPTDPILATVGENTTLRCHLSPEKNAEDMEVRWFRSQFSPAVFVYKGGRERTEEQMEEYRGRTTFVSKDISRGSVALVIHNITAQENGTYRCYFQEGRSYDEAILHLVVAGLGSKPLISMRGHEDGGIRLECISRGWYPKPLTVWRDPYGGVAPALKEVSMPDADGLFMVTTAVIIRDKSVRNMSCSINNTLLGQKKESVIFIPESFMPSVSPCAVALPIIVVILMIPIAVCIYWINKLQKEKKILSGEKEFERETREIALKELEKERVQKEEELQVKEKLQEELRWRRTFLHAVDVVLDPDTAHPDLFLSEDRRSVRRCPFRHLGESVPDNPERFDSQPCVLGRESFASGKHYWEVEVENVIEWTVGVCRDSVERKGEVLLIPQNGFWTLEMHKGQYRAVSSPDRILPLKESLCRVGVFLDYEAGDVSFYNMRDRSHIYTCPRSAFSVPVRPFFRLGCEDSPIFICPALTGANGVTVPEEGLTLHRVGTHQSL

T3: human BTN2A2 CFP(Nter)-fusion protein expressed on 293F BTN3/BTN2 KO cells (human, UniProt Q8WVV5 33-523)
T3 construct: also called pcDNA3-Zeo-BTN2A2-CFP; not shown: CFP fused at the N-terminus (CFP(Nter)-fusion)
T3 sequence: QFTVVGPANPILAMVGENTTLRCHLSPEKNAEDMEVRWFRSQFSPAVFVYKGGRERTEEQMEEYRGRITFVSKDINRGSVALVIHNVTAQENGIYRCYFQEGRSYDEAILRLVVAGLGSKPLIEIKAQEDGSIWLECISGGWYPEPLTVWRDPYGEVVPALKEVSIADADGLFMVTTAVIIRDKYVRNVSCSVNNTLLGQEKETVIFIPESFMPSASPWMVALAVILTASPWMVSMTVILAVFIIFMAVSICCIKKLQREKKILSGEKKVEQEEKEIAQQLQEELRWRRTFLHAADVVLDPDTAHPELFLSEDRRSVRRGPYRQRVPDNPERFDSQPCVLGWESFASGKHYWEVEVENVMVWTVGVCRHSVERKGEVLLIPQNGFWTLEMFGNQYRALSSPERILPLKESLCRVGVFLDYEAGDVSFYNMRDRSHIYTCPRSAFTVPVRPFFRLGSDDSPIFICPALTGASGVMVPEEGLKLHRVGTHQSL


How the values were obtained:
[1] = target: T1, human BTN2A2 expressed on HEK293F cells …; test: flow cytometry on HEK-BTN2 cells (summary table, repeats the 5th table)
[2] = target: T1, human BTN2A2 expressed on HEK293F cells …; test: flow cytometry titration on HEK293F cells transfected with BTN2A2-Flag
[3] = target: T2, human BTN2A1 CFP(Nter)-fusion protein …; test: flow cytometry on BTN2A1-transfected 293F BTN3/BTN2 KO cells (summary table, repeats the 7th table)
Procedure: (§1) HEK-293F cells bearing CRISPR-Cas9-mediated deletions of all isoforms of BTN3 and BTN2 (293F BTN3/BTN2 KO) were generated (data not shown), cultured in DMEM (Life Technologies) 10% fetal bovine serum (FBS, Gibco) 1 mM sodium pyruvate (Thermofisher scientific), and transfected independently with pcDNA3-Zeo-BTN2A1-CFP or pcDNA3-Zeo-BTN2A2-CFP, which encode BTN2A1 and BTN2A2 CFP(Nter)-fusion proteins, using Lipofectamine 2000 reagent (Thermofisher scientific) according to manufacturer's instructions.
(§2) Twenty-four hours after transfection, cells (5×10⁴/sample) were collected and stained in duplicate with the indicated concentrations (2-fold dilutions starting from 20 μg/mL to 64 pg/mL) of all 7 purified anti-human BTN2 mAbs in 50 μL of staining buffer (DPBS1X (Thermofisher scientific) 1% FBS, 1 mM EDTA (Thermofisher scientific)) during 30 minutes at 4° C. Equal concentrations of mouse IgG1 antibody (Miltenyi) were used as isotype control for staining. Then, cells were washed twice with 200 μL of staining buffer, and incubated with a 1:200 dilution of goat anti-mouse Ig-PE conjugated (Jackson Immunoresearch) in staining buffer for 30 min at 4° C. in the dark. Finally, cells were washed twice in staining buffer prior to fixation using BD Cytofix reagent (BD Bioscience) according to manufacturer's instructions. Mean fluorescence intensity (MFI) on PE channel within the CFP-positive population was assessed for each sample in a Cytoflex LX (Beckman Coulter), and analyzed with a FlowJo V10.4.2 software (FlowJo, LLC 2006-2018).

[4] = target: T3, human BTN2A2 CFP(Nter)-fusion protein …; test: flow cytometry on BTN2A2-transfected 293F BTN3/BTN2 KO cells (summary table, repeats the 7th table)
Procedure: as §1, §2

[5] = target: T2, human BTN2A1 CFP(Nter)-fusion protein …; test: flow cytometry (PE MFI in CFP-positive cells) on 293F BTN3/BTN2 KO cells transfected with BTN2A1-CFP
Procedure: as §1, §2

[6] = target: T3, human BTN2A2 CFP(Nter)-fusion protein …; test: flow cytometry (PE MFI in CFP-positive cells) on 293F BTN3/BTN2 KO cells transfected with BTN2A2-CFP
Procedure: as §1, §2

[7] = target: T1, human BTN2A2 expressed on HEK293F cells …; test: flow cytometry on HEK293F cells transfected with BTN2A2-Flag
Procedure: FIG. 1: Binding of BTN2 mAbs on HEK293F cells. HEK293F cells were transfected with BTN2A2-Flag plasmid. At day 1 after transfection, BTN2A2 transfected HEK293F cells (A) and non-transfected HEK293F cells (B) were stained with purified mouse anti-human BTN2 mAbs for 20 min at 4° C. Monoclonal Anti-Flag antibody serves as positive control for transfection. After 2 washes, cells were incubated with a secondary goat anti-mouse IgG PE for 20 min at 4° C. and a marker for cell viability. Cells were acquired on a LSRFortessa (BD) and analyzed with FlowJo (TreeStar).

[8] = target: T2, human BTN2A1 CFP(Nter)-fusion protein …; test: flow cytometry on 293F BTN3/BTN2 KO cells transfected with BTN2A1-CFP
Procedure: as §1
as §2, with “Finally, cells were washed twice in staining buffer prior to fixation using BD Cytofix reagent (BD Bioscience) according to manufacturer's instructions.” left out

[9] = target: T3, human BTN2A2 CFP(Nter)-fusion protein …; test: flow cytometry on 293F BTN3/BTN2 KO cells transfected with BTN2A2-CFP
Procedure: as §1
as §2, with “Finally, cells were washed twice in staining buffer prior to fixation using BD Cytofix reagent (BD Bioscience) according to manufacturer's instructions.” left out

EC50 [1] | EC50 [2] | EC50 [3] | EC50 [4] | EC50 [5] | EC50 [6] | binding result [7] | binding result [8] | binding result [9] | Binder
0.1 µg/mL | 0.1 µg/mL | 0.08 µg/mL | 0.5 µg/mL | 0.08 µg/mL | 0.5 µg/mL | – | – | – | mAb5 (mouse anti-human BTN2 mAb 8.15) (antibody, V domains shown, Mouse IgG1 purified from hybridoma supernatant; also called CNCM I-5235) VH: EVKLLESGGGLVQPGGSLKLSCAASGFDFSGYWMTWVRQAPGKGLEWIGEINPDSSTINYTPSLRDKFIISRDNAKNTLYLQMSKVRSEDTALYFCARGSYYPSYWGQGTLVTVSA VL: DIVLTQSPASLAVSLGQRATISCRASKSVSSSGYSYMNWYQQKPGQPPKLLIYLASNLESGVPARFSGSGSGTDFTLNIHPVEDEDAATYYCQHSRELPHTFGGGTKLEIK
0.11 µg/mL | 0.11 µg/mL | 0.08 µg/mL | 2.4 µg/mL | 0.08 µg/mL | 2.4 µg/mL | – | – | – | mAb6 (mouse anti-human BTN2 mAb 8.16) (antibody, V domains shown, Mouse IgG1 purified from hybridoma supernatant; also called CNCM I-5236) VH: EVKLLESGGGLVQPGGSLKLSCAASGFDFSGYWMTWVRQAPGKGLEWIGEINPDSSTINYTPSLRDKFIISRDNAKNTLYLQMSKVRSEDTALYFCARGSYYPSYWGQGTLVTVSA VL: DIVLTQSPASLAVSLGQRATISCRASKSVSSSGYSYMNWYQQKPGQPPKLLIYLASNLESGVPARFSGSGSGTDFTLNIHPVEDEDAATYYCQHSRELPHTFGGGTKLEIK
31.3 µg/mL | 31.3 µg/mL | 0.02 µg/mL | 11.8 µg/mL | 0.02 µg/mL | 11.8 µg/mL | – | – | – | mAb3 (mouse anti-human BTN2 mAb 7.28) (antibody, V domains shown, Mouse IgG1 purified from hybridoma supernatant; also called CNCM I-5233) VH: QVHLQQSGAELMKPGASVKISCKATGYTFSSYWIEWVKQRPGHGREWIGEILPGSGSTKYNEKFRGKATFAADTSSNTAYVQLSSLTSEDSAVYYCARLKGYYGGGAMDYWGQGTSVTVSS VL: DVQITQSPSYLAASPGETITINCRASKSISKYLAWYQEKPGKTNELLIYSGSTLQSGIPSRFSGSGSGTDFTLTISSLEPEDFAMYYCQQHNEYPWTFGGGTKLEIK
0.08 µg/mL | 0.08 µg/mL | 0.02 µg/mL | 0.01 µg/mL | 0.02 µg/mL | 0.01 µg/mL | – | – | – | mAb4 (mouse anti-human BTN2 mAb 7.48) (antibody, V domains shown, Mouse IgG1 purified from hybridoma supernatant; also called CNCM I-5234) VH: EVQLVESGGDLVKPGGSLKLSCAASGFTFSDFYMYWVRRTPEKRLEWVATISDGGSHTYYPDSVKGRFTISRDNAKNNLYLQMRSLKSEDTAMYYCGRDTTIITPYWGQGTLVTVSA VL: QSVVTQESALTTSPGETVTLTCRSSTGAVTTSNYANWVQEKPDHLFTGLIGGTNNRAPGVPARFSGSLIGDKAALTITGAQTEDEAIYFCGLWYSNHWVFGGGTKLTVL
0.07 µg/mL | 0.07 µg/mL | 0.04 µg/mL | 0.01 µg/mL | 0.04 µg/mL | 0.01 µg/mL | – | – | – | mAb2 (mouse anti-human BTN2 mAb 5.28) (antibody, V domains shown, Mouse IgG1 purified from hybridoma supernatant; also called CNCM I-5232) VH: QIQLVQSGPELKKPGETVKISCKASGYTFTDYSMNWVKQAPGKGLKWVGRINTETGEPTYADDFKGRFAFSLETSASTAYLQIKNLKNEDTATYFCVRDYAKRWGQGTSVTVSS VL: DIVMTQSHKFMSTSVGDRVSITCKASQDVITAVAWYQQKPGQSPKLLIYSTSYRYTGVPDRFTGSGSGTDFTFTISSVQAEDLAVYYCLQHYTTPWTFGGGTKLEIK
– | – | – | – | – | – | no binding | no binding | no binding | mAb7 (mAb 8.33, comparative control antibody) (antibody, V domains shown, Mouse IgG1 purified from hybridoma supernatant; also called CNCM I-5237) VH: DVQLQESGPGLVKPSQSLSLTCSVTGYSITSGYYWNWIRQFPGNKLEWMGYISYDGNNNYNPSLKNRISITRDTSKNQFFLKLNSVTTEDTATYYCASPLYDGYYWYFDVWGAGTTVTVSS VL: ETTVTQSPASLSLAIGEKVTIRCITSTDIDDDMNWYQQKPGEPPKLLISEANTLRPGVPSRFSSSGRGTDFVFTIENMLSEDVADYYCLQSDNLPYTFGGGTKLEIK
0.07 µg/mL | 0.07 µg/mL | 0.06 µg/mL | 0.01 µg/mL | 0.06 µg/mL | 0.01 µg/mL | – | – | – | mAb1 (mouse anti-human BTN2 mAb 4.15) (antibody, V domains shown, Mouse IgG1 purified from hybridoma supernatant; also called CNCM I-5231) VH: QVQLQQSGAELVKPGASVKLSCKASGYIFTSYDINWVRQRPEQGLEWIGWIFPGDDSIIQNEKFKGKATLTTDKSSSTVYMQLSRLTSEDSAVYFCARLGPLRGFTYWGQGTLVTVSA VL: DIVLTQSPASLAVSLGQRATISCRASESVDRYGSSFMHWYQQKPGQPPKLLIYRASNLESGIPARFSGSGSRTDFTLTINPVEADDVATYYCQQSNEDPWTFGGGTKLEIK

Source: patent publication US20200283519A1 (IMCHECK THERAPEUTICS, published 2020)
